{"source": "paper PMC5773591", "about": "“Structural basis of trans-synaptic interactions between PTPδ and SALMs for inducing synapse formation” (Nature Communications, 2018)", "molecules": {"B1": {"name": "mouse PTPδ Ig1–Fn1 (A9B+)-His6 Q209A (domain or fragment)", "chain": "ETPPRFTRTPVDQTGVSGGVASFICQATGDPRPKIVWNKKGKKVSNQRFEVIEFDDGSGSVLRIQPLRTPRDEAIYECVASNNVGEISVSTRLTVLREDQIPRGFPTIDMGPQLKVVERTRTATMLCAASGNPDPEITWFKDFLPVDTSNNNGRIKQLRSESIGGTPIRGALQIEQSEESDAGKYECVATNSAGTRYSAPANLYVRELREVRRVPPRFSIPPTNHEIMPGGSVNITCVAVGSPMPYVKWMLGAEDLTPEDDMPIGRNVLELNDVRQSANYTCVAMSTLGVIEAIAQITVKALPKPPGTPVVTESTATSITLTWDSGNPEPVSYYIIQHKPKNSEEPYKEIDGIATTRYSVAGLSPYSDYEFRVVAVNNIGRGPASEPVLTQ"}, "B2": {"name": "mouse PTPδ Ig1–Fn1 (A9B+)-His6 R233A (domain or fragment)", "chain": "B1 chain with A182Q, R206A"}, "B3": {"name": "human SALM5 LRR–Ig-His6 (residues 18–378) (domain or fragment, UniProt Q96NI6 18-378, looked up)", "chain": "QICPKRCVCQILSPNLATLCAKKGLLFVPPNIDRRTVELRLADNFVTNIKRKDFANMTSLVDLTLSRNTISFITPHAFADLRNLRALHLNSNRLTKITNDMFSGLSNLHHLILNNNQLTLISSTAFDDVFALEELDLSYNNLETIPWDAVEKMVSLHTLSLDHNMIDNIPKGTFSHLHKMTRLDVTSNKLQKLPPDPLFQRAQVLATSGIISPSTFALSFGGNPLHCNCELLWLRRLSREDDLETCASPPLLTGRYFWSIPEEEFLCEPPLITRHTHEMRVLEGQRATLRCKARGDPEPAIHWISPEGKLISNATRSLVYDNGTLDILITTVKDTGAFTCIASNPAGEATQIVDLHIIKLP", "notes": "human SALM5 (synaptic adhesion-like molecule 5, Lrfn family), LRR–Ig, residues 18–378; Homodimer by SEC-MALS; The synaptogenic assay used another construct (entire ECD fused to Fc); also called SALM5 WT; apo-SALM5; source: Expi293F, transiently expressed, secreted, purified (Ni-NTA, Superdex200 SEC); not shown: His6, C-terminal, kept"}, "B4": {"name": "mouse SALM2 LRR–Ig-His6 (residues 32–390) (domain or fragment, UniProt Q2WF71 32-390, looked up)", "chain": "QPCPGRCICQNVAPTLTMLCAKTGLLFVPPAIDRRVVELRLTDNFIAAVRRRDFANMTSLVHLTLSRNTIGQVAAGAFADLRALRALHLDSNRLAEVRGDQLRGLGNLRHLILGNNQIRKVESAAFDAFLSTVEDLDLSYNNLEALPWEAVGQMVNLNTLTLDHNLIDHIAEGTFVQLHKLVRLDMTSNRLHKLPPDGLFLRSQGGGPKPPTPLTVSFGGNPLHCNCELLWLRRLTREDDLETCATPEHLTDRYFWSIPEEEFLCEPPLITRQAGGRALVVEGQAVSLRCRAVGDPEPVVHWVAPDGRLLGNSSRTRVRGDGTLDVTITTLRDSGTFTCIASNAAGEATAPVEVCVVPL", "notes": "mouse SALM2 (synaptic adhesion-like molecule 2, Lrfn family), LRR–Ig, residues 32–390; Homodimer by SEC-MALS; source: Expi293F, transiently expressed, secreted, purified (Ni-NTA, Superdex200 SEC); not shown: His6, C-terminal, kept"}}, "key": {"IL1RAPL1 (Mus musculus)": {"molecular_target": "IL1RAPL1 (Mus musculus) (UniProt P59823)", "sequence (P59823 25-357)": "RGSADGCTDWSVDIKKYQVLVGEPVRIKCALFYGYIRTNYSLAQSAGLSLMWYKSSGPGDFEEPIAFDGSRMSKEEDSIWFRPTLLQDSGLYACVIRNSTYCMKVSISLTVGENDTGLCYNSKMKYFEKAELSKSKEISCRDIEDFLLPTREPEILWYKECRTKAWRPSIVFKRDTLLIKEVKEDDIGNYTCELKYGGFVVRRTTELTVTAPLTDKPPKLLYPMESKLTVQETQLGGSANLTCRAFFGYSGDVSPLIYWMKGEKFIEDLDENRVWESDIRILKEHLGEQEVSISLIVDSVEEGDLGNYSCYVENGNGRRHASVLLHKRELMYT", "conditions": "cited from earlier work"}, "[1]": {"molecular_target": "human SALM5 LRR–Ig-His6 I358A (human) (UniProt Q96NI6)", "assay": "SPR; Biacore T200, 25 °C, 10 mM Hepes-Na (pH 7.5), 200 mM NaCl, 0.05% Tween20; SALM5 proteins immobilised on a CM5 chip by amino coupling; PTPδ proteins injected as analytes (0.1–260 μM)"}, "[2]": {"molecular_target": "human SALM5 LRR–Ig-His6 I321A (human) (UniProt Q96NI6)", "assay": "SPR; Biacore T200, 25 °C, 10 mM Hepes-Na (pH 7.5), 200 mM NaCl, 0.05% Tween20; SALM5 proteins immobilised on a CM5 chip by amino coupling; PTPδ proteins injected as analytes (0.1–260 μM)"}, "[3]": {"molecular_target": "human SALM5 LRR–Ig-His6 (residues 18–378) (human) (UniProt Q96NI6)", "assay": "SPR; Biacore T200, 25 °C, 10 mM Hepes-Na (pH 7.5), 200 mM NaCl, 0.05% Tween20; SALM5 proteins immobilised on a CM5 chip by amino coupling; PTPδ proteins injected as analytes (0.1–260 μM)"}, "[4]": {"molecular_target": "human SALM5 LRR–Ig-His6 Q134N (human) (UniProt Q96NI6)", "assay": "SPR; Biacore T200, 25 °C, 10 mM Hepes-Na (pH 7.5), 200 mM NaCl, 0.05% Tween20; SALM5 proteins immobilised on a CM5 chip by amino coupling; PTPδ proteins injected as analytes (0.1–260 μM)"}, "[5]": {"molecular_target": "human SALM5 LRR–Ig-His6 R253A (human) (UniProt Q96NI6)", "assay": "SPR; Biacore T200, 25 °C, 10 mM Hepes-Na (pH 7.5), 200 mM NaCl, 0.05% Tween20; SALM5 proteins immobilised on a CM5 chip by amino coupling; PTPδ proteins injected as analytes (0.1–260 μM)"}, "[6]": {"molecular_target": "human SALM5 LRR–Ig-His6 L249A (human) (UniProt Q96NI6)", "assay": "SPR; Biacore T200, 25 °C, 10 mM Hepes-Na (pH 7.5), 200 mM NaCl, 0.05% Tween20; SALM5 proteins immobilised on a CM5 chip by amino coupling; PTPδ proteins injected as analytes (0.1–260 μM)"}, "[7]": {"molecular_target": "human SALM5 LRR–Ig-His6 L288A (human) (UniProt Q96NI6)", "assay": "SPR; Biacore T200, 25 °C, 10 mM Hepes-Na (pH 7.5), 200 mM NaCl, 0.05% Tween20; SALM5 proteins immobilised on a CM5 chip by amino coupling; PTPδ proteins injected as analytes (0.1–260 μM)"}, "[8]": {"molecular_target": "B3", "assay": "SPR; Biacore T200, 25 °C, 10 mM Hepes-Na (pH 7.5), 200 mM NaCl, 0.05% Tween20; SALM5 proteins immobilised on a CM5 chip by amino coupling; PTPδ proteins injected as analytes (0.1–260 μM)", "conditions": "both partners purified"}, "[9]": {"molecular_target": "mouse PTPδ Ig1–Fn1 (A9B–) (mouse, UniProt Q64487 28-418, B– (meB insert 234ELRE237 absent))", "assay": "SPR; Biacore T200, 25 °C, 10 mM Hepes-Na (pH 7.5), 200 mM NaCl, 0.05% Tween20; SALM5 proteins immobilised on a CM5 chip by amino coupling; PTPδ proteins injected as analytes (0.1–260 μM)", "conditions": "both partners purified"}, "[10]": {"molecular_target": "the molecule itself", "assay": "SEC-MALS; SALM LRR–Ig proteins at 0.5 g/L on ENrich SEC 650 in 20 mM Tris-HCl (pH 7.4), 250 mM NaCl; dimer of monomers"}}, "note": "Substitutions are numbered along the chain they refer to. Names may count otherwise."}
{"molecule": "PTPδ (from UniProt Q64487)", "values": [{"measurement": "Kd", "setting": "IL1RAPL1 (Mus musculus)", "value": 0.15, "unit": "µM"}]}
{"molecule": "mouse PTPδ Ig1–Fn1 (A9B+)-His6 (domain or fragment)", "values": [{"measurement": "Kd", "setting": "[1]", "value": 31.4, "unit": "µM"}, {"measurement": "Kd", "setting": "[2]", "value": 21.9, "unit": "µM"}, {"measurement": "Kd", "setting": "[3]", "value": 14.4, "unit": "µM"}, {"measurement": "Kd", "setting": "[4]", "value": 9, "unit": "µM"}, {"measurement": "Kd", "setting": "[5]", "value": 95.2, "unit": "µM"}, {"measurement": "Kd", "setting": "[6]", "value": 169, "unit": "µM"}, {"measurement": "Kd", "setting": "[7]", "value": 129, "unit": "µM"}]}
{"molecule": "mouse PTPδ Ig1–Fn1 (A9B+)-His6 L153A (domain or fragment)", "values": [{"measurement": "Kd", "setting": "[3]", "value": 25, "unit": "µM"}]}
{"molecule": "mouse PTPδ Ig1–Fn1 (A9B+)-His6 M137A (domain or fragment)", "values": [{"measurement": "Kd", "setting": "[3]", "value": 39.9, "unit": "µM"}]}
{"molecule": "mouse PTPδ Ig1–Fn1 (A9B+)-His6 M312A (domain or fragment)", "values": [{"measurement": "Kd", "setting": "[3]", "value": 37.3, "unit": "µM"}]}
{"molecule": "mouse PTPδ Ig1–Fn1 (A9B+)-His6 V143A (domain or fragment)", "values": [{"measurement": "Kd", "setting": "[3]", "value": 150, "unit": "µM"}]}
{"molecule": "mouse PTPδ Ig1–Fn1 (A9B+)-His6 Y231A (domain or fragment)", "values": [{"measurement": "Kd", "setting": "[3]", "value": 70.9, "unit": "µM"}]}
{"molecule": "mouse PTPδ Ig1–Fn1 (A9B+)-His6 Y273A (domain or fragment)", "values": [{"measurement": "Kd", "setting": "[3]", "value": 77.5, "unit": "µM"}]}
{"molecule": "mouse PTPδ Ig1–Fn1 (A–B+) (from UniProt Q64487 28-418) (domain or fragment)", "values": [{"measurement": "Kd", "setting": "[3]", "value": 13.5, "unit": "µM"}]}
{"molecule": "B1", "values": [{"measurement": "Kd", "setting": "[8]", "value": "21.9 ± 0.23", "unit": "µM"}]}
{"molecule": "B2", "values": [{"measurement": "Kd", "setting": "[8]", "value": "24.8 ± 1.2", "unit": "µM"}]}
{"molecule": "B3", "values": [{"measurement": "Kd", "setting": "[9]", "value": "106 ± 17", "unit": "µM"}, {"measurement": "stoichiometry N", "setting": "[10]", "value": 2}]}
{"molecule": "B4", "values": [{"measurement": "stoichiometry N", "setting": "[10]", "value": 2}]}
